By stoichiometry N is commonly meant the number of molecules, sites or subunits per partner or assembly.

Common to all, as to experiment: cryo-EM structure
For assay [1], the target named is H. catenoides kalium channelrhodopsin (HcKCR1), wildtype (Hyphochytrium catenoides).
The target in assay [2] is higher potassium selective channelrhodopsin (B1ChR2) from Bilabrum sp (Bilabrum sp).
For assay [3], the target named is sodium selective channelrhodopsin HcCCR from H. catenoides (Hyphochytrium catenoides).

“H. catenoides kalium channelrhodopsin (HcKCR1), wildtype (natural protein)”: the stoichiometry N in assay [1] was 3.

The substance “higher potassium selective channelrhodopsin (B1ChR2) from Bilabrum sp (natural protein)” came in with a stoichiometry N in assay [2] of 3.

As to “sodium selective channelrhodopsin HcCCR from H. catenoides (natural protein)”, the stoichiometry N in assay [3] stood at 3.

The values are drawn from paper doi:10.1101/2023.07.22.550149.
